Results: paper PMC9758184
Like-named read-outs stand apart in the source and are kept apart here.

Assays:
Assay in all cases: SEC; Superdex 200 HR 10/30, cold 1x PBS pH 7.2; native size of each protein from its own elution volume against size standards, dark- or light-incubated (same result in both); PmSB-LOV C53A run only in the mixture with PmlR2
[1] = target: PmSB-LOV (Pseudomonas mendocina Sensory box-LOV), wild-type tag-free recombinant protein (Pseudomonas mendocina NBRC 14162)
[2] = target: PmSB-LOV (Pseudomonas mendocina Sensory box-LOV), wild-type tag-free recombinant protein (Pseudomonas mendocina NBRC 14162); remark: listed apart in the source
[3] = target: PmlR2 (Pseudomonas mendocina light-inducible transcriptional regulator), tag-free recombinant protein (Pseudomonas mendocina NBRC 14162)
[4] = target: PmlR2-N (1-113 aa), tag-free recombinant protein containing only the HTH DNA-binding domain (Pseudomonas mendocina NBRC 14162)

Q: Which results are given for “PmSB-LOV (Pseudomonas mendocina Sensory box-LOV), wild-type tag-free recombinant protein (natural protein)”?
A: stoichiometry N [1]: 2; stoichiometry N [2]: 3

Q: For “PmlR2 (Pseudomonas mendocina light-inducible transcriptional regulator), tag-free recombinant protein (natural protein)”, which stoichiometry N [3] is on record?
A: 6

Q: Which stoichiometry N [4] does the source give for “PmlR2-N (1-113 aa), tag-free recombinant protein containing only the HTH DNA-binding domain (domain or fragment)” here?
A: 2
